Experimental data published in US20250332254A1, “METHODS FOR TREATING PATIENTS WITH FAMILIAL HYPERCHOLESTEROLEMIA” (REGENERON PHARMACEUTICALS, INC., priority 2016, published 2025).

Key:
[1] = biological target: T1, ANGPTL3 (Mus musculus, UniProt Q9R182); settings: mouse model; Wang, et al. 2015; cited from earlier work
T1 construct: host or cells: mouse, in vivo
T1 sequence (Q9R182 17-455): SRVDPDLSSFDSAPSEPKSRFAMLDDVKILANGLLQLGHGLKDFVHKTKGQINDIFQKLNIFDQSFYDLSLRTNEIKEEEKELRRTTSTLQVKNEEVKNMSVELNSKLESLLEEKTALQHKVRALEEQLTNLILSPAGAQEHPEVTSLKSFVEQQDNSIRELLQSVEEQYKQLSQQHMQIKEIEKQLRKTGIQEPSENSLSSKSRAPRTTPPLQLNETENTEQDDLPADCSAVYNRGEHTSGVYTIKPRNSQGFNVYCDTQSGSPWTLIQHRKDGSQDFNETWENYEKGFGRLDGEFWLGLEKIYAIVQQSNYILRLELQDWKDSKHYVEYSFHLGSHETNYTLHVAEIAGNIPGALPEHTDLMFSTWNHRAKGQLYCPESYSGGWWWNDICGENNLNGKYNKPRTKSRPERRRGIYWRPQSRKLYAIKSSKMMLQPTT

[2] = biological target: T2, ANGPTL3 (Homo sapiens, UniProt Q9Y5C1); experiment: Phase 1 first-in-human ascending single-dose placebo-controlled study of evinacumab SC or IV in subjects with elevated TGs and/or LDL-C; format: in vivo
T2 construct: Angiopoietin-like protein 3 (ANGPTL3) is a secreted protein expressed in the liver; from tissue; host or cells: in vivo, human subjects; circulating protein secreted by the liver
T2 sequence (Q9Y5C1 17-460): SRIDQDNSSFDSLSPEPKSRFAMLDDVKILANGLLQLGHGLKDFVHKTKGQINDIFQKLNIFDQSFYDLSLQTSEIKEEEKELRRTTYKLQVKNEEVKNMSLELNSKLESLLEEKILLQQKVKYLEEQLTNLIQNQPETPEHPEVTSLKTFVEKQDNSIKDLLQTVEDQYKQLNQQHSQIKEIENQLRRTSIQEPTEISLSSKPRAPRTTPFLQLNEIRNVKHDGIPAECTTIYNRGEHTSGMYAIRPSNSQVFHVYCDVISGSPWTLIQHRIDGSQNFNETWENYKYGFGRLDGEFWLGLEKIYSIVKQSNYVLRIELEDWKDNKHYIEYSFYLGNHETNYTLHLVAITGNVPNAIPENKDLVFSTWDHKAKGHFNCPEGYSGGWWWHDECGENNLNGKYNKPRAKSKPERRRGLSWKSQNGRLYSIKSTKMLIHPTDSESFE
Experimental: Methods: The instant study constituted a phase 1, first-in-human, ascending single-dose, placebo (PBO)-controlled, double-blind study of evinacumab administered subcutaneously (SC) or intravenously (IV) in subjects with elevations of TGs (150≤TG≤450 mg/dL) and/or LDL C (≥100 mg/dL). Eighty-three subjects were randomized into the study (9 in PBO SC; 12 in PBO IV; 11 in 75 mg SC: 12 in 150 mg SC, 9 in 250 mg SC, 10 in 5 mg/kg IV, 9 in 10 mg/kg IV, and 11 in 20 mg/kg IV).

[3] = biological target: T2, ANGPTL3; settings: Dewey, et al. 2017; cited from earlier work

evinacumab: human anti-ANGPTL3 monoclonal antibody; HCVR SEQ ID NO:1, LCVR SEQ ID NO:5
number of VLDLs secreted by the liver and character of VLDL particles [1]: did not affect the number of VLDLs secreted by the liver, but qualitatively altered the VLDL particles that were made
TG, median % change from baseline (maximum TG reductions) ([2]; Day 4, across the evinacumab doses (75-250 mg SC, 5-20 mg/kg IV)): −1.0% to −75.0%
LDL-C, mean % changes from baseline ([2]; Day 11, across the evinacumab doses (75-250 mg SC, 5-20 mg/kg IV)): −3.4% to −25.5%
duration of LDL reduction ([2]; after 20 mg/kg IV): 43 days
duration of TG reduction ([2]; after 20 mg/kg IV): 64 days
headache (TEAE), number of subjects ([2]; evinacumab group): 7
headache (TEAE), percent of subjects ([2]; evinacumab group): 11.3%
subjects reporting at least one treatment emergent adverse event (TEAE), number ([2]; evinacumab group): 32 subjects
subjects reporting at least one treatment emergent adverse event (TEAE), percent ([2]; evinacumab group): 51.6%
increases in ALT/AST [>2X ULN], number of subjects ([2]; evinacumab-treated): 5 treated subjects
effect on TGs, LDL-C and HDL-C ([2]; healthy subjects with moderately elevated TGs and/or LDL-C): rapid and substantial reductions in TGs, as well as reductions in LDL-C and HDL-C
discontinuation due to a TEAE ([2]; human, in vivo): no subject discontinued due to a TEAE
dose-related safety trend ([2]; human, in vivo): no dose-related safety trend
effect on HDL-C, VLDL-C, total cholesterol, non-HDL-C, ApoA1, and ApoB ([2]; human, in vivo): Dose-dependent reductions
effect on Lp(a) ([2]; human, in vivo): no apparent effects
serious TEAEs ([2]; human, in vivo): None were serious
effect on major lipid fractions ([2]; normal healthy volunteers): reduced the three major lipid fractions
tolerability ([2]; single SC or IV dose, subjects with moderately elevated TGs and/or LDL-C): generally well-tolerated
tolerability and LDL-C effect in first-in-human study of healthy human volunteers [3]: shown to reduce LDL-C and was also well tolerated
